# From the supplement of paper PMC7125110
# ± gives the standard error. Variants at the floor of the assay were thinned out.
# B1: glmS ribozyme (parent)
# chain: AUAAAAGCGCCAGAACUACAGAAAUGUAGUUGACGAGGAGGAGGUUUAUCGAAUUUUCGGCGGAUGCCUCCAAA
# Variants of: B1
# Experiment: self-cleavage kobs at 10000 uM GlcN6P; higher = faster cleavage; RNA array
# Details: with glucosamine-6-phosphate
# Outline: (§1)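 On sequenced MiSeq chips, barcoded ribozyme variants were made in situ by E. coli RNA polymerase and followed at 37 °C through a hybridised Cy3 probe. Glucosamine-6-phosphate was flowed in at 40 μM to 10 mM in HEPES/KCl/Mg(OAc)2 buffer. Exponential fits to normalised per-tile medians gave kobs, and weighted Michaelis–Menten fits gave kcat and KM.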
row,Variant,self-cleavage kobs at 10000 uM GlcN6P [s⁻¹]
1,A6C C50A U55G,< 1e-05
2,C8G G9U G66C C68G,< 1e-05
3,G7U G29C A48G C50G C71A,0.00097 ± 0.00047
4,G9U G43U A53C,< 1e-05
5,C8A A15G A39C C70G,< 1e-05
6,A53G C61U C68G,4.37e-05 ± 1.2e-05
7,G7C G29A,< 1e-05
8,U54G C58G A64G C71U,4.18e-05 ± 1.4e-05
9,A6C U31A G44A U65A,< 1e-05
10,C10G A14U C16A U54G C61U G62U,< 1e-05
11,A6G A52U G60A G66A,< 1e-05
12,C8U G9U G37A C67G,< 1e-05
13,G9A A33U U69C,< 1e-05
14,C10A C11G C16G A48U C50G C70A,6.85e-05 ± 1.8e-05
15,C8G G51U G59U,< 1e-05
16,A6C U31C G35A A42C,< 1e-05
17,A6U C50G A53C C71A,4.1e-05 ± 2e-05
18,C10G A39U A48C,< 1e-05
19,A6G C58U A64U,< 1e-05
20,G9C G32C A36U U46A,< 1e-05
21,A6U G29U G62C,< 1e-05

row,Variant,self-cleavage kobs at 10000 uM GlcN6P [s⁻¹]
1,C10A G37C G51A,< 1e-05
2,C8U G40U C61U C67U,< 1e-05
3,A6C C16U G29C C58A,< 1e-05
4,C8G C16U A53G C61U,< 1e-05
5,A6U A39C G43U G51U C70G C71A,< 1e-05
6,C8U G51U U69A,0.000401 ± 0.00014
7,U2C C11U G59U,0.000103 ± 2.1e-05
8,C8U C16A A39C C58U A64G C67G,< 1e-05
9,U49C U57G,< 1e-05
10,C8A G44A U46G C70G,< 1e-05
11,C10G A14C G63U,< 1e-05
12,G7U G9U G44A C68G,< 1e-05
13,G7U C61U C70A,< 1e-05
14,G9U A15U A52U,< 1e-05
15,C8U G13U A15U C50U,< 1e-05
16,A52G U55A,0.00185 ± 0.00032
17,G7U A15U C50G A53U U55G G62U,7.67e-05 ± 2.5e-05
18,G9C C34U,< 1e-05
19,C10G C11A G38C G43U G51C U56C G60C,< 1e-05
20,C8U A14U A36U,< 1e-05
21,A39U A42U U47A,0.00362 ± 0.0011

row,Variant,self-cleavage kobs at 10000 uM GlcN6P [s⁻¹]
1,G7C C10U G60U,< 1e-05
2,G9U G35C A42C,< 1e-05
3,A64G U65C,0.000113 ± 1.6e-05
4,A1U U2G A3G C8G C34G,< 1e-05
5,C8U U57A U69G,0.000575 ± 0.00016
6,C8U U45A A48G C70G,< 1e-05
7,G41A G63U C70U,< 1e-05
8,A39G A53C C70A,0.000165 ± 4.3e-05
9,A6G C16A G37C U69C,< 1e-05
10,C8G U30A A39G G41C U54G C67A,< 1e-05
11,C10G C11G U55C G60A,< 1e-05
12,G41A C70A,0.00019 ± 2.6e-05
13,U45C A48U U65A,< 1e-05
14,A6C G59A G66A,< 1e-05
15,C8G G32U G66U,< 1e-05
16,G40A U65C,0.000296 ± 6.1e-05
17,C8U G29A U31G,< 1e-05
18,G7C G62C,< 1e-05
19,G9U G41U C58A G60C,< 1e-05
20,G9U A15C G62A,< 1e-05
21,A6U A12U C16U A36G,< 1e-05

row,Variant,self-cleavage kobs at 10000 uM GlcN6P [s⁻¹]
1,A6G C34A A42U U54G,< 1e-05
2,A6C U31C U45A U57G,< 1e-05
3,A39U U46G C70A,0.000162 ± 3.2e-05
4,G40C G66C,0.000531 ± 6.3e-05
5,G7A A53C G63A,< 1e-05
6,C10G A42C U69G,< 1e-05
7,A6C G7C G35A C68G,< 1e-05
8,A6U A33G C34U G44U U49C U57G,< 1e-05
9,G7A A48G U65A,< 1e-05
10,C8A C34A A64G,< 1e-05
11,U55C G59U,2.55e-05 ± 1.2e-05
12,A6G U45A U57G,< 1e-05
13,G7U C8G C16A,< 1e-05
14,G7A G41A A53C,< 1e-05
15,C8A A42G G66U,< 1e-05
16,G7A G29A G38A G44U A48G G66U,< 1e-05
17,G7C A15C G41A,< 1e-05
18,A6U A14U G29U,< 1e-05
19,G7A G29C U47G A53G,< 1e-05
20,G7U A48G C50G C61G,0.000895 ± 0.00024
21,A6U A12U A64G,0.000171 ± 4.1e-05

# Variants of: B1
# Experiment: self-cleavage kobs at 2500 uM GlcN6P; higher = faster cleavage; RNA array
# Details: with glucosamine-6-phosphate
# Outline: as §1
row,Variant,self-cleavage kobs at 2500 uM GlcN6P [s⁻¹]
1,A52G A64G C68U,6.71e-05 ± 2.2e-05
2,A39G G44U A53C,0.000157 ± 4.5e-05
3,A53G C61U C68G,6.94e-05 ± 2.7e-05
4,G43C A53U C58G A64G,< 1e-05
5,G44A U46A A48U A53C,< 1e-05
6,U54G C58G A64G C71U,5.26e-05 ± 2.3e-05
7,G40A U47C U54C,0.00058 ± 0.00013
8,A42U C58U U65G,< 1e-05
9,A52U U54A C67U,0.000187 ± 5.3e-05
10,G44U U49C C61A,< 1e-05
11,A39G A42U C67U,9.25e-05 ± 2.6e-05
12,G40C U47A G62C,< 1e-05
13,G38U G40U C70A,< 1e-05
14,A52G U54G C68G,7.13e-05 ± 2.9e-05
15,A52G G62A G63U U69G,0.000139 ± 4.7e-05
16,A64C C67G C68A,6.52e-05 ± 1.8e-05
17,U56A C58G C67U,4.09e-05 ± 1.7e-05
18,G43C U47A G62U C71U,< 1e-05
19,U45G A52U G63C,< 1e-05
20,A39U A42G A64U,5.16e-05 ± 2.2e-05
21,A42U U55A G60U G63C,< 1e-05
22,G41U C58A A64G U69A,< 1e-05
23,U45G C50U U56G G59C,< 1e-05

row,Variant,self-cleavage kobs at 2500 uM GlcN6P [s⁻¹]
1,U47G C58A G59U C70G,0.000334 ± 9.7e-05
2,A39G G40U U54A,0.000126 ± 6.2e-05
3,A39G U57A C61A,< 1e-05
4,U56A G63U,< 1e-05
5,G40U A53G U65C,4.92e-05 ± 1.4e-05
6,A42U U56A U69G,0.00299 ± 0.00059
7,U45G A48U U55C,8.04e-05 ± 2.8e-05
8,G44A U49A G62U,< 1e-05
9,A53G G63U C71A,< 1e-05
10,U47A C68G U69G,7.59e-05 ± 3.7e-05
11,G51A U56C C70G,< 1e-05
12,G40U G66A C70U,0.0016 ± 0.00053
13,U46G C61U A64G,< 1e-05
14,C58A U65G C70U,6.2e-05 ± 2.7e-05
15,A52U C61G C67U,8.45e-05 ± 3e-05
16,G41U U57G C70A,0.000107 ± 1.9e-05
17,G43A U47G C61G,< 1e-05
18,U49C U57G,< 1e-05
19,G51U U54G C61U,< 1e-05
20,A39U G41U C71A,4.06e-05 ± 2e-05
21,U49G C61U C67G,< 1e-05
22,A52G U55A,0.000757 ± 0.00015
23,G41U G44C U55G G59U,< 1e-05

row,Variant,self-cleavage kobs at 2500 uM GlcN6P [s⁻¹]
1,A39C A42C G66A,0.00014 ± 4.5e-05
2,A39U A42U U47A,0.0025 ± 0.0012
3,G38U G40U A48U C68G,< 1e-05
4,A39C G41C G66U,< 1e-05
5,U55A A64C C71U,7.29e-05 ± 3.2e-05
6,G43U U54A C58U G59C C61G G62C A64G U65A G66U,< 1e-05
7,A39G U55C A64G,0.00694 ± 0.0013
8,A64G U65C,8.88e-05 ± 2.5e-05
9,A53C U55G G66A,0.00165 ± 0.00032
10,C50G C58A G66A,0.000121 ± 4.3e-05
11,G41A G63U C70U,< 1e-05
12,A39G A53C C70A,0.000143 ± 4.2e-05
13,G40C A52G U55G,4.2e-05 ± 1.1e-05
14,U49C U55C C70G,< 1e-05
15,G41A C70A,0.000253 ± 5.4e-05
16,A39U G41C A52U,< 1e-05
17,U45C A48U U65A,< 1e-05
18,U46G U49G C50U A52G,< 1e-05
19,A52U G59U A64U C70U,< 1e-05
20,A42U G43A G60U,< 1e-05
21,U46G C58U C68G,0.000337 ± 0.00012
22,G41U G51U G62C,< 1e-05
23,G40A U65C,0.000394 ± 0.00015

row,Variant,self-cleavage kobs at 2500 uM GlcN6P [s⁻¹]
1,U46G C50G C68G,4.12e-05 ± 2e-05
2,G40C U47A U65G,0.000652 ± 0.00017
3,G44U U56C U57A,< 1e-05
4,G41C G51U U69C,< 1e-05
5,A39G U54A C71G,0.00114 ± 0.00046
6,G41C G44U U54A C68A C71A,< 1e-05
7,G38C U57A G63U,< 1e-05
8,G38U G43A U47C C67U,< 1e-05
9,U55A C67U C68G C70A,0.000233 ± 8.8e-05
10,A39U U46G C70A,0.000101 ± 2.8e-05
11,C68U U69C C70U,3.99e-05 ± 1.4e-05
12,G44A U49C G62U,< 1e-05
13,G40C G66C,0.000833 ± 0.00021
14,A39C U47C U55A,0.000971 ± 0.00023
15,U46A A53U C68U,0.000125 ± 6.3e-05
16,A53G C67G C68U,7.23e-05 ± 2.2e-05
17,U55C G59U,3.25e-05 ± 1.3e-05
18,A48U C50A U65G,< 1e-05
19,G44C U46G G63A,< 1e-05
20,G38U U65A C70G,0.000107 ± 3.6e-05
